Data published in paper PMC10980356 (The Plant Cell, 2023).

T1: MLO2-NLuc (A. thaliana, UniProt Q9SXB6 1-573)
T1 sequence: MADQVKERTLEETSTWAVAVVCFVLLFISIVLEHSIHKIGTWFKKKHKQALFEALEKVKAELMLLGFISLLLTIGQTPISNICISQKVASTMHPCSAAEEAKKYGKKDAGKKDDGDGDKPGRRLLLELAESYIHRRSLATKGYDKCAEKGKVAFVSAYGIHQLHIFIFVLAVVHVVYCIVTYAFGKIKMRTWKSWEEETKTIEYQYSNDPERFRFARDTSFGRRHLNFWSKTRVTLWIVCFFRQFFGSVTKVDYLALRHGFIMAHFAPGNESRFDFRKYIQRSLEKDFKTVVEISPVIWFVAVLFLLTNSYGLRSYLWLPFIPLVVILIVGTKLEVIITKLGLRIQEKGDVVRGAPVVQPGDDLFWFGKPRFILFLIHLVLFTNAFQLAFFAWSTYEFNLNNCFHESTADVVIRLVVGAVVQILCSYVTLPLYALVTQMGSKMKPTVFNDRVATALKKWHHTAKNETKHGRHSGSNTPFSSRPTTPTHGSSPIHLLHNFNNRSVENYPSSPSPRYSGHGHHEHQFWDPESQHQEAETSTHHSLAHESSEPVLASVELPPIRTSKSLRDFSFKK

T2: MLO6-NLuc (A. thaliana, UniProt Q94KB7 1-583)
T2 sequence: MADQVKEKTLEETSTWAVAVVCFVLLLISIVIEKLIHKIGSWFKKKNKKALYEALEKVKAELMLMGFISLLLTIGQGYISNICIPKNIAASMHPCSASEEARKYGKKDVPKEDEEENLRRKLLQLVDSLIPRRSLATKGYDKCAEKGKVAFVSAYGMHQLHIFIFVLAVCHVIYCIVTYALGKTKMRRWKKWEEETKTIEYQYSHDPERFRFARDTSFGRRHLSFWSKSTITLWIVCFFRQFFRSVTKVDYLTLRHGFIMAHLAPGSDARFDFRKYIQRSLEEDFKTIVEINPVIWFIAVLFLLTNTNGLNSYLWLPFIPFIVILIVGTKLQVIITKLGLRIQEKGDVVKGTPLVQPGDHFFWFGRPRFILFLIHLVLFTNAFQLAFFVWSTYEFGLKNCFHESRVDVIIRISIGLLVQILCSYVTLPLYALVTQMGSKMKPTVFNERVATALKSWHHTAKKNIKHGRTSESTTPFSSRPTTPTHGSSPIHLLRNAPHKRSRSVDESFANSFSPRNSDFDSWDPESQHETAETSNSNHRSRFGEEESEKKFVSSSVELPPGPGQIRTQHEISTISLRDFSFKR

T3: MLO12-NLuc (A. thaliana, UniProt O80961 1-576)
T3 sequence: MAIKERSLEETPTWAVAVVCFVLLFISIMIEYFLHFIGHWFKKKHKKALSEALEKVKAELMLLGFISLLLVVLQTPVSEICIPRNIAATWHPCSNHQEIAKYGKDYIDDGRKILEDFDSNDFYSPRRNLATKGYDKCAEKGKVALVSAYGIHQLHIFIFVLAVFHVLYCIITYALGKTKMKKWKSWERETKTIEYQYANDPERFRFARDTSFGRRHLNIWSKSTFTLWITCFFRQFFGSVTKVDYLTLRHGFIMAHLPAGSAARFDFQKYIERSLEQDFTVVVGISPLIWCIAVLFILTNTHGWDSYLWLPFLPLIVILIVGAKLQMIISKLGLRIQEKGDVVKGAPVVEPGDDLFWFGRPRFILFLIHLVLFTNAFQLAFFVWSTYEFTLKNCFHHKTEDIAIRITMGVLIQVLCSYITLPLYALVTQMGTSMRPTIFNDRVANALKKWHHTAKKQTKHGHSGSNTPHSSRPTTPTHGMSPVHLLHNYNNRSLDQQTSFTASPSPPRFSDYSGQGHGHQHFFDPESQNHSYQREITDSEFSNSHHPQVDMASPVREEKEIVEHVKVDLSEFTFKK


Tests used:
Test in all cases: split reporter
MLO2-NLuc = molecular target: T1, MLO2-NLuc
MLO6-NLuc = molecular target: T2, MLO6-NLuc
MLO12-NLuc = molecular target: T3, MLO12-NLuc

Row | Binder | relative luminescence (in relation to the calmodulin positive control) (MLO2-NLuc) | relative luminescence (in relation to the calmodulin positive control) (MLO6-NLuc) | relative luminescence (in relation to the calmodulin positive control) (MLO12-NLuc)
1 | CLuc-EXO70B2 (natural protein) MAEAGDENLYAAARDIARALGKDPSAAGDILQILSGYGASGNRGGDPRPTPSRGGSNVNFDRALTSLERQISSYIVEDRPIWSDPVDSRTFLDSVDELLAIAGDLRSMAGDKSVAVCQSRADELIQQVMFRLQEEFGFVMDRAPDSFDSDDEFPGEEDNDTSDGVIVARPITDYKIVIEALQSSVIGDLNAIAVRMVAGGFAKECSRVYSSRRREFLEESLSRLHLRGLSMEEVQESPWQDLEDEIDRWIKAVTLIFHVFFPSERLLCDRVFSDLPVSSVTDLSFMEVCRGTTTQLLNFADAIALGSRLPERLFKVVDLYEAMQDLIPKMETLFSDRYCSPLRHEALAIHKRLGEAIRGIFMELENLIRRDPPKTAFPGGGIHPITRYVMNYLRAACKSRQSLEQILDQTGNETGSDTRPLSVQIIWVLELLESNLEGKKRTYRDPSLCFLFMMNNDKYILDKAKDNELGLVLGEDWIVKHAAKLRQYHSNYRRSSWNQVVGLLRTDGPYPKLVENLRLFKSQFDEVCKVQSQWVVSDGQLREELRSSVAGIVSPAYSNFIRRLKESPEINGRRGEPFIPYTVEDVEFIIKRLFKESSS | ~0.56 | – | –
2 | CLuc-EXO70H4 (natural protein) MMTRKAMINICCVATTPSKYPPPPPLTLTPRQSLESAAIYGVIESAADIIERWNTETNTFAKVTCMFYENKPEAMMFIERVKDLQKTMDVLVSEDPNSERLLRSHKLMQIAMKRLQKEFYQILSMNRAYLDPESVSTRSSLTSARSSYSDFPDYVEDLDTIIELEEVSTNVMTDLKSIAECMIGSGYAKECLSIYKSIRKSIIDEGIYRLEVEKTSTGKVKKMSWEVMELKIRSWLKAVKVSMETLFKGEKILCDHVFESSDAIRESCFSDISRDGALLLFGFPEIINTKTSKKHSPPEKVFRLLDMYTAIAGNWQAIESIFSFDSISVVRSLALKSLISLSESIRSLLVEFESGIQKDSSKVVVPGGGVHPLTISVMDHLSLLADYSNVLVDILAGSPPPDRSLLPESYFNVSESDDSPSSELTIRFAWIILVLLCKIDRKSIHYKDFSIQYLFLTNNLQHVVSRARSSNLKNLLGEDWITRHFAKMRQFAGSYKRLAWGPVVATLPENRTVEMTPEEVKERFEKFSESFENAYSKHSVCVVADPNIRDEIKVSISRKLVPIYREFYNTRGSVILGEGDGARNLNSVVRFTPEDIENYLSDLFREKGSSGNSSASSPSSCRSRQSMS | ~0.4 | ~0.67 | –
3 | CLuc-EXO70H1 (natural protein) MAKMAKFSFFSSSSPKYHPSSPSSFTSFPASPLNQNFTQAMMEETVETADSVIRKWDPNTPSFTKIVSLFNHSRKEAKEFIRCVRDLRRAMHFLVSQDSQSPKLALAQTLMQIAMARLEKEFFQILSSNRDKLDPESVSGQSSISSNSEFEDVMGSDDDDESDNEMRKAGESITQVEKASAMVMSDLKAIAESMISCGYGKECVKIYKRVRKSIVDEGLSLLGIEIYKGSRFHRTDWVTLEHMIKNWIKAAKIGIATLFRGEKLLCDHVFSASNSTRESCFYEIANEAATNLFKFPEFVAKEKKSHERIFPLMDLQAAISDLWQDIEMIFHFDAVAGVKSQALTSLQKLKVSIHSALTDFESIIQKDTTKALTPGGGIHKLTRSTMNFISSLSKYSGVLSEILADHPLPRNTRLLESYVRAPISEDEQHNHALSVHFAWLILVLLCKLDTKAEHYKDVSLSYLFLANNLQIIIETVGSTPLRNLLGDDWLNKHEDKLCAYAGNYEIAAWSNVFMSLPEEPTDLSPEEAKIYFRRFHTAFEEAYMKQSSRVVPNAKLRDELKVSIAKKLVPEYREFYRKYLPMLGQERNIEILVRFKPDNLENYISDLFHGTPIHASSSFSSSSSSSSWKSLGCVSG | ~0.39 | – | ~0.37
